# Laboratory results taken from US20190270826A1 (Janssen / Centocor, published 2019).
# How the values were obtained:
# [1] = target: T1, human IL1RAP on cells (endogenous) (human, UniProt Q9NPH3 21-570); test: cell-based or functional assay
# T1 sequence (looked up): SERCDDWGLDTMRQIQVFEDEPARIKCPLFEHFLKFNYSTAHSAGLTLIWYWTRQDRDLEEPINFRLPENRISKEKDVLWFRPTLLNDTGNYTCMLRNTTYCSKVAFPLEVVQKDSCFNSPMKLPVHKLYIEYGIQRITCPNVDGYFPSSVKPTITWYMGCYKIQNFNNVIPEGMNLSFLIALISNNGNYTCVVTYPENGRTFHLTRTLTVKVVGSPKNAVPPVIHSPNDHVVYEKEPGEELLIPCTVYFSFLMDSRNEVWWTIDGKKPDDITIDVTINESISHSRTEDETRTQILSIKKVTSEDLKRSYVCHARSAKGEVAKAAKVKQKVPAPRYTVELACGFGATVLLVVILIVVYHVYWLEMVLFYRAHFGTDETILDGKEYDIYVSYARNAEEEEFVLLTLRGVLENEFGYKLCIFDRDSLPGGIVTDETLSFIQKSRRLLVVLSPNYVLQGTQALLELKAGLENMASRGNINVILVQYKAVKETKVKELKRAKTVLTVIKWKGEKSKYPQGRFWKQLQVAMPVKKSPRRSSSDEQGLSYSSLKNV
# [2] = target: T1, human IL1RAP on cells (endogenous); test: cell-based or functional assay; remark: listed apart in the source
# [3] = target: T2, mouse IL1RAP ECD displayed on HEK-293F cells (pDisplay) (mouse, UniProt Q61730 21-367); test: MSD cell binding, HEK-293F Mouse clone 5 cells displaying mouse IL1RAP ECD
# T2 sequence: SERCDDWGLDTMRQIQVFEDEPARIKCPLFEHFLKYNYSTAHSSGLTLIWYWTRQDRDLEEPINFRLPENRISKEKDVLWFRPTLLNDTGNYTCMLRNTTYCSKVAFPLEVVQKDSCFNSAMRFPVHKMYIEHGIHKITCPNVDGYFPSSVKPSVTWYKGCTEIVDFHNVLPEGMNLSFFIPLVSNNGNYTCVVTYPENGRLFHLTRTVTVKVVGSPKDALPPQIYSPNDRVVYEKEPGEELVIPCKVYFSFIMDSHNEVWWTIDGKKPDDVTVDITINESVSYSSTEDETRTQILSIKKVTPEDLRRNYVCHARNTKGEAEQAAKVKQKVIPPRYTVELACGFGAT
# Experimental: (§1) Cells were immobilized and IL1RAP antibody samples were assayed in triplicate. Briefly, expression supernatants of purified IL1RAP antibodies were normalized to 10 μg/mL. 5000 cells per well were plated into a 384 well plate (MA6000, cat. L21XB, MSD) and allowed to adhere for 2 hr. Cells were then blocked with 20% FBS in PBS (Gibco) for 15 mins. Antibody supernatants were then added and left at RT for 1 hr. Cells were washed 3 times with PBS and a ruthenium labeled secondary antibody (Mesoscale Discovery) was then added at 2 μg/mL and incubated for 1 hour at room temperature. A further washing step was then applied and 35 μL per well of 2×MSD Read buffer T (surfactant free) was then added and incubated for 5-30 minutes for detection. Plates were then read using Sector Imager 2400 (MSD). Data was normalized to controls and graphed using GraphPad Prism Version 5. A positive binder was determined to be a hit with a signal 3× greater than parental cell line background.
# (§2) The MSD cell binding assay described in Example 4 was used to assess IL1RAP binding.
# [4] = target: T3, cyno IL1RAP ECD displayed on HEK-293F cells (pDisplay) (cynomolgus monkey, UniProt P59822 21-367 (rhesus entry)); test: MSD cell binding, HEK-293F Cyno (clone CB8) cells displaying cyno IL1RAP ECD
# T3 sequence: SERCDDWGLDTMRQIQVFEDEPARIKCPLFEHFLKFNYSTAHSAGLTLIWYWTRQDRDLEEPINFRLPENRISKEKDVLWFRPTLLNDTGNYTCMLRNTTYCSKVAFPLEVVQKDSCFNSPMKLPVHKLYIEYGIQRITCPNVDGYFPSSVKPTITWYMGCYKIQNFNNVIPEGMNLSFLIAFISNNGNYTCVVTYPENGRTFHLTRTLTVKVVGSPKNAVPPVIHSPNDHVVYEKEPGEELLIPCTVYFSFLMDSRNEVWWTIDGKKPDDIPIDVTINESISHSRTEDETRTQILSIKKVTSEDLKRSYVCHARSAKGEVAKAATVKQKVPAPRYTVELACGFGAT
# Experimental: as §1, §2
# human FcRn = target: T4, human FcRn (human, UniProt P55899 24-297; P61769 21-119, limits assumed); test: AlphaScreen competition, human FcRn (n=1); displaced: biotinylated control mAb B21M WT IgG1 (m27); pH 6.0
# T4 construct: GST-tagged
# Text: (§3) Measurements were made using an AlphaScreen™ assay (Amplified Luminescent Proximity Homogeneous Assay (ALPHA), PerkinElmer, Wellesley, Mass.), a bead-based luminescent proximity assay. Laser excitation of a donor bead excites oxygen, which if sufficiently close to the acceptor bead generates a cascade of chemiluminescent events, ultimately leading to fluorescence emission at 520-620 nm.
# human FcγRIIb = target: T5, human FcγRIIb (human, UniProt P31994 43-217, limits assumed); test: AlphaScreen competition, human FcγRIIb (n=1); displaced: biotinylated control mAb B21M hIgG1 WT; pH 7.2
# T5 construct: GST-tagged
# T5 sequence (looked up): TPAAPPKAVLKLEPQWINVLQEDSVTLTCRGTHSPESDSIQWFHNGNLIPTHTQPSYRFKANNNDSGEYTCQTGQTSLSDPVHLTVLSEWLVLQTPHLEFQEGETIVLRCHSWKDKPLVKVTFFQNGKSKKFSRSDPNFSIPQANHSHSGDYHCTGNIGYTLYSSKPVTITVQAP
# Text: as §3
binder,measurement,setting,value
"IC3B19 (bispecific antibody, human IgG4 S228P, kappa, lambda, F234A L235A, IgG4-PAA, Fab arm exchange; also called IAPB57 x CD3B219; IL1RAP x CD3) heavy 1: EVQLVESGGGLVQPGGSLRLSCAASGFTFNTYAMNWVRQAPGKGLEWVARIRSKYNNYATYYAASVKGRFTISRDDSKNSLYLQMNSLKTEDTAVYYCARHGNFGNSYVSWFAYWGQGTLVTVSSASTKGPSVFPLAPCSRSTSESTAALGCLVKDYFPEPVTVSWNSGALTSGVHTFPAVLQSSGLYSLSSVVTVPSSSLGTKTYTCNVDHKPSNTKVDKRVESKYGPPCPPCPAPEAAGGPSVFLFPPKPKDTLMISRTPEVTCVVVDVSQEDPEVQFNWYVDGVEVHNAKTKPREEQFNSTYRVVSVLTVLHQDWLNGKEYKCKVSNKGLPSSIEKTISKAKGQPREPQVYTLPPSQEEMTKNQVSLTCLVKGFYPSDIAVEWESNGQPENNYKTTPPVLDSDGSFLLYSKLTVDKSRWQEGNVFSCSVMHEALHNHYTQKSLSLSLGK light 1: QTVVTQEPSLTVSPGGTVTLTCRSSTGAVTTSNYANWVQQKPGQAPRGLIGGTNKRAPGTPARFSGSLLGGKAALTLSGVQPEDEAEYYCALWYSNLWVFGGGTKLTVLGQPKAAPSVTLFPPSSEELQANKATLVCLISDFYPGAVTVAWKADSSPVKAGVETTTPSKQSNNKYAASSYLSLTPEQWKSHRSYSCQVTHEGSTVEKTVAPTECS heavy 2: not shown light 2: DIQLTQSPSFLSASVGDRVTITCRASQGISSYLAWYQQKPGKAPKLLIYAASTLQSGVPSRFSGSGSGTEFTLTISSLQPEDFATYYCQQVNSYPLTFGGGTKVEIKRTVAAPSVFIFPPSDEQLKSGTASVVCLLNNFYPREAKVQWKVDNALQSGNSQESVTEQDSKDSTYSLSSTLTLSKADYEKHKVYACEVTHQGLSSPVTKSFNRGEC","Average EC50, SKNO-1 cytotoxicity in whole blood, 24 hour",[1],1.82 nM
same,"Average EC50, SKNO-1 cytotoxicity in whole blood, 48 hour",[1],1.4 nM
same,"EC50, SKNO-1 cytotoxicity in whole blood, donor 00201, 24 hour",[1],3.58 nM
same,"EC50, SKNO-1 cytotoxicity in whole blood, donor 00201, 48 hour",[1],0.703 nM
same,"EC50, SKNO-1 cytotoxicity in whole blood, donor 00263, 24 hour",[1],1.5 nM
same,"EC50, SKNO-1 cytotoxicity in whole blood, donor 00263, 48 hour",[1],0.768 nM
same,"EC50, SKNO-1 cytotoxicity in whole blood, donor 27050, 24 hour",[1],1.38 nM
same,"EC50, SKNO-1 cytotoxicity in whole blood, donor 27050, 48 hour",[1],3.36 nM
same,"EC50, SKNO-1 cytotoxicity in whole blood, donor 27060, 24 hour",[1],1.88 nM
same,"EC50, SKNO-1 cytotoxicity in whole blood, donor 27060, 48 hour",[1],1.3 nM
same,"EC50, SKNO-1 cytotoxicity in whole blood, donor 27067, 24 hour",[1],0.912 nM
same,"EC50, SKNO-1 cytotoxicity in whole blood, donor 27067, 48 hour",[1],0.647 nM
same,"EC50, SKNO-1 cytotoxicity in whole blood, donor 32771, 24 hour",[1],1.68 nM
same,"EC50, SKNO-1 cytotoxicity in whole blood, donor 32782, 48 hour",[1],1.62 nM
same,"Average EC50, T-cell mediated cytotoxicity, ALL-SIL",[2],0.004 nM
same,"Average EC50, T-cell mediated cytotoxicity, HPB-ALL",[2],0.008 nM
same,"Average EC50, T-cell mediated cytotoxicity, LAMA-84",[2],0.001 nM
same,"Average EC50, T-cell mediated cytotoxicity, MEG-01",[2],0.002 nM
same,binding result,[3],no binding (tested: 100 µg/mL)
same,EC50 (read off the curve),[4],~1 µg/mL
same,IC50 (read off the curve),human FcRn,~200 nM
same,binding result,human FcγRIIb,binds
